Self-cleavage data for 167 variants are collected here from the RNAGym collection of RNA variant scans (doi:10.7554/elife.90254).

First the molecules themselves.
B1: LINE1-mini (parent)
chain: GGCAGAGCUCAACACAGCGUGGCAAAGUGGCUGUGGCUAGACUGCC

The variants in the series derive from B1. Description: self-cleavage, relative activity (ratio to wild type); higher = more cleavage; in vitro, sequencing; the parent is a self-cleaving ribozyme.
Take C10G A16G: the self-cleavage worked out at 0.06.
On to C10G A16U, for which the self-cleavage was 0.06.
With C10G A16C the figure was 0.02.
With C10G G33U the figure was 0.02.
On to C10G G33C, for which the self-cleavage amounted to 0.02.
Consider C10G G33A, for which the self-cleavage was found to be 0.03.
In the case of C10U G29A, the self-cleavage was found to be 0.18.
On to C10U G29U, for which the self-cleavage came out at 0.39.
As to C10U G29C, the self-cleavage stood at 0.2.
In the case of C10G G35U, the self-cleavage worked out at 0.04.
Turning to C10G G35C, the self-cleavage is 0.02.
Take C10G G35A: the self-cleavage was 0.03.
With C10U U38A, the self-cleavage is 0.04.
C10U U38G: the self-cleavage amounted to 0.03.
On to C10U U38C, for which the self-cleavage was 0.17.
Turning to C10G U34C, the self-cleavage is 0.04.
With C10G U34G, the self-cleavage turned out to be 0.03.
On to C10G U34A, for which the self-cleavage came to 0.03.
With C10G C15U, the self-cleavage stood at 0.09.
As to C10G C15G, the self-cleavage was 0.03.
For the variant C10G C15A, the self-cleavage is 0.04.
Regarding C10U G36U, the self-cleavage turned out to be 0.03.
As for C10U G36A, the self-cleavage stood at 0.08.
Consider C10U G36C, for which the self-cleavage stood at 0.05.
Take A11C U38G: the self-cleavage stood at 0.02.
Under A11C U38A stands 0.02.
With A11C U38C the figure was 0.04; with C10U A25C, 0.21; with C10U A25G, 0.39.
With C10U A25U, the self-cleavage came out at 0.48.
With A11C G35U the figure was 0.02; with A11C G35C, 0.03; with A11C G35A, 0.03.
On to C10G G21U, for which the self-cleavage amounted to 0.14.
In the case of C10G G21A, the self-cleavage was found to be 0.18.
As to C10G G21C, the self-cleavage stood at 0.07.
Under A11C C15U stands 0.03.
As to A11C C15G, the self-cleavage stood at 0.02.
For A11C C15A, the self-cleavage came out at 0.02.
For A11C G33C, the self-cleavage was found to be 0.02.
Turning to A11C G33A, the self-cleavage was 0.04.
For A11C G33U, the self-cleavage was 0.04.
C10U U32G: the self-cleavage came out at 0.12.
Take C10U U32A: the self-cleavage is 0.08.
With C10U U32C the figure was 0.1; with C10U, 0.34.
On to A11G A12U, for which the self-cleavage was 0.04.
Consider A11G A12C, for which the self-cleavage came to 0.02.
Regarding A11G A12G, the self-cleavage amounted to 0.02.
A11C G29A: the self-cleavage came out at 0.06.
For A11C G29U, the self-cleavage came to 0.07.
As for A11C G29C, the self-cleavage came out at 0.05.
With A11C U43C the figure was 0.02; with A11C U43G, 0.03.
Consider A11C U43A, for which the self-cleavage came to 0.01.
C10G A25G: the self-cleavage is 0.08.
Under C10G A25C stands 0.1; under C10G A25U, 0.1; under A11C C42A, 0.02.
As to A11C C42G, the self-cleavage was found to be 0.03.
With A11C C42U the figure was 0.02; with A11C A39C, 0.02; with A11C A39G, 0.03.
Under A11C A39U stands 0.03; under C10G G27C, 0.09.
With C10G G27A, the self-cleavage turned out to be 0.14.
For C10G G27U, the self-cleavage stood at 0.08.
With C10U U20A, the self-cleavage was 0.18.
Take C10U U20C: the self-cleavage turned out to be 0.28.
As for C10U U20G, the self-cleavage is 0.18.
Regarding A11G A24U, the self-cleavage was 0.02.
For the variant A11G A24G, the self-cleavage was found to be 0.02.
As to A11G A24C, the self-cleavage came out at 0.03.
Consider C10U U34A, for which the self-cleavage came to 0.14.
In the case of C10U U34C, the self-cleavage turned out to be 0.08.
With C10U U34G the figure was 0.32; with A11C G44A, 0.06.
Under A11C G44U stands 0.03; under A11C A14G, 0.04; under A11C A14U, 0.03.
As to A11C A14C, the self-cleavage came out at 0.02.
With A11C G27U, the self-cleavage worked out at 0.05.
With A11C G27C the figure was 0.04.
As for A11C G27A, the self-cleavage was 0.11.
C10G U20A: the self-cleavage is 0.06.
For C10G U20G, the self-cleavage was found to be 0.05.
With C10G U20C the figure was 0.07; with C10U G19U, 0.21.
In the case of C10U G19A, the self-cleavage was 0.32.
In the case of C10U G19C, the self-cleavage was 0.24.
Consider A11G, for which the self-cleavage came to 0.04.
For A11C, the self-cleavage stood at 0.08.
For the variant C10U C13U, the self-cleavage was found to be 0.06.
Turning to C10U C13G, the self-cleavage was found to be 0.09.
For C10U C13A, the self-cleavage was 0.06.
Consider C10G A26G, for which the self-cleavage worked out at 0.12.
With C10G A26C the figure was 0.11; with C10G A26U, 0.15.
Turning to C10U A41U, the self-cleavage was found to be 0.16.
Regarding C10U A41G, the self-cleavage was 0.07.
As to C10U A41C, the self-cleavage was found to be 0.03.
Turning to C10G G29C, the self-cleavage came to 0.04.
With C10G G29U, the self-cleavage was found to be 0.08.
Under C10G G29A stands 0.1; under A11C C46A, 0.03.
As to A11C C46U, the self-cleavage worked out at 0.11.
As for A11C C46G, the self-cleavage worked out at 0.02.
In the case of C10G A41U, the self-cleavage was found to be 0.05.
In the case of C10G A41G, the self-cleavage came to 0.05.
With C10G A41C, the self-cleavage was determined as 0.01.
With A11G A16C, the self-cleavage is 0.02.
Consider A11G A16G, for which the self-cleavage was found to be 0.02.
With A11G A16U the figure was 0.03; with A11C A41G, 0.03; with A11C A41C, 0.01.
Consider A11C A41U, for which the self-cleavage came to 0.04.
As to C10G G17A, the self-cleavage was found to be 0.16.
Under C10G G17U stands 0.07.
For C10G G17C, the self-cleavage amounted to 0.23.
On to C10U G40C, for which the self-cleavage worked out at 0.04.
As to C10U G40A, the self-cleavage is 0.02.
Under C10U G40U stands 0.06; under C10G C13A, 0.03; under C10G C13G, 0.08.
C10G C13U: the self-cleavage was determined as 0.04.
In the case of C10U A11C, the self-cleavage came to 0.05.
Consider C10U A11U, for which the self-cleavage was determined as 0.09.
Turning to C10U A11G, the self-cleavage worked out at 0.05.
Under C10U G30A stands 0.54; under C10U G30U, 0.59.
As to C10U G30C, the self-cleavage was 0.36.
For the variant A11C G19C, the self-cleavage stood at 0.08.
Turning to A11C G19A, the self-cleavage is 0.05.
For A11C G19U, the self-cleavage was 0.04.
Consider C10G G40A, for which the self-cleavage came out at 0.01.
For the variant C10G G40C, the self-cleavage was 0.02.
Take C10G G40U: the self-cleavage stood at 0.02.
Take A11C C23U: the self-cleavage is 0.05.
For the variant A11C C23G, the self-cleavage stood at 0.06.
With A11C C23A the figure was 0.07.
For C10G C18U, the self-cleavage was 0.09.
Under C10G C18G stands 0.04; under C10G C18A, 0.08; under C10G C23A, 0.08.
As to C10G C23U, the self-cleavage is 0.09.
With C10G C23G the figure was 0.07; with C10G C42A, 0.03.
Take C10G C42G: the self-cleavage turned out to be 0.03.
With C10G C42U the figure was 0.03; with C10U G22U, 0.42.
As to C10U G22C, the self-cleavage was found to be 0.18.
Under C10U G22A stands 0.25; under C10U A24U, 0.48.
Take C10U A24G: the self-cleavage turned out to be 0.35.
With C10U A24C the figure was 0.11; with A11C G21A, 0.26.
For A11C G21C, the self-cleavage came to 0.08.
Consider A11C G21U, for which the self-cleavage was 0.1.
Regarding A11C U32A, the self-cleavage is 0.04.
In the case of A11C U32G, the self-cleavage was 0.03.
A11C U32C: the self-cleavage came out at 0.04.
In the case of C10G C37U, the self-cleavage was 0.01.
For C10G C37G, the self-cleavage is 0.01.
C10G C37A: the self-cleavage came out at 0.01.
With C10U G35U the figure was 0.05.
As to C10U G35C, the self-cleavage was 0.04.
Turning to C10U G35A, the self-cleavage was found to be 0.08.
